{"source": "patent US10174111", "about": "(NATIONAL UNIVERSITY CORPORATION KOCHI UNIVERSITY, dated 2019)"}
{"molecular_target": "T1, human LSR (lipolysis stimulated lipoprotein receptor) (human, UniProt Q86X29 1-649)", "T1 construct": "Stood on human ovarian cancer cells (RMG-I, OVSAHO, JHOS2, OVISE; endogenous) or on SKOV3-L45 cells made to stably express LSR (construct not described); also called hLSR; human LSR protein (NP_991403.1)", "T1 sequence": "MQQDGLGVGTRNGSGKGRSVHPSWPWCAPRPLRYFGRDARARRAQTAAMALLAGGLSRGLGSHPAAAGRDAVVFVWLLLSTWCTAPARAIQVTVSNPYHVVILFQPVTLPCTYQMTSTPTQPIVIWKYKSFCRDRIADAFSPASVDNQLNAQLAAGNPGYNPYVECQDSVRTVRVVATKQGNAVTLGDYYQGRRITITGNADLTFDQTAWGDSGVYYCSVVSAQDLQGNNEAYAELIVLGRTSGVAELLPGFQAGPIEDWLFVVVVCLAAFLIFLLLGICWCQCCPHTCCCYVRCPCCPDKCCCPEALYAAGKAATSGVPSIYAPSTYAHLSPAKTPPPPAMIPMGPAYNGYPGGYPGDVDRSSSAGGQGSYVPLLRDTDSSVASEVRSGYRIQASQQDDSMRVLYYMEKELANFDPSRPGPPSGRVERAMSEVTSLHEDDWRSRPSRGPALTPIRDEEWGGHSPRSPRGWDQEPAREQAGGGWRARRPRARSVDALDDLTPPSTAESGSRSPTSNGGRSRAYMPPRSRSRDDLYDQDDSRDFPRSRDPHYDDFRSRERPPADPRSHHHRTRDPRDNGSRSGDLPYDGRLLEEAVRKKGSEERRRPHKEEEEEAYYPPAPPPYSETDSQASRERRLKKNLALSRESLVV", "assay": "FACS on RMG-I cells stained with various antibody concentrations, goat anti-mouse IgG-FITC, fit in GraphPad Prism", "method": "Then, using an anti-LSR antibody (#1-25 or #9-7), immunohistochemical staining for LSR was carried out according to the ABC method. In the ovary serous adenocarcinoma tissue and the endometrial cancer tissue, LSR was highly expressed at the tumor sites. Immunohistochemical Staining Using Normal Frozen Tissue Array FDA standard human tissue microarrays (T6234701-2, Biochain) were immunohistochemically stained using the anti-LSR antibody #1-25. […] Calculation of Binding Constant Various concentration of various anti-LSR antibodies were reacted with RMG-I cells and they were stained using goat anti-mouse IgG-FITC (Southern Biotech, Birmingham, Ala., USA) and analyzed by a FACSCanto® II cytometer (Becton Dickinson). With regard to the fluorescence intensity of FITC, a KD value was analyzed using GraphPad Prism® Software Version 6.0 for Windows (GraphPad Software Inc., San Diego, Calif., USA). When the binding ability of the made LSR antibodies was analyzed by FACS®, antibodies having a high binding ability were obtained. The following analysis was carried out using two kinds of clones having the highest binding ability in them (FIG. 37B). […] Cell Cycle Analysis Ovarian clear cell adenocarcinoma (RMG-I) was seeded into a 6-well plate at 15,000 cells/well and incubated in a CO_2 incubator at 37° C. overnight. The culture supernatant was discarded and 100 µg/ml anti-LSR antibody or mouse IgG2a diluted with RPMI 1640 medium (containing 1% FBS and 1% penicillin-streptomycin) was added at 2 mL/well for each. After 96 hours, cell cycle analysis was carried out using the Cycle Test Plus® DNA Reagent kits (BD Biosciences). Western Blot Ovarian clear cell adenocarcinoma (RMG-I) was seeded into a 6-well plate at 15,000 cells/well and incubated in a CO_2 incubator at 37° C. overnight. The culture supernatant was discarded and 100 µg/ml anti-LSR antibody or mouse IgG2a diluted with RPMI 1640 medium (containing 1% FBS and 1% penicillin-streptomycin) was added at 2 mL/well for each.", "units": {"Kd": "nM"}}
{"binder": "anti-LSR mouse/chicken chimeric monoclonal antibody #9-7 (antibody, V domains shown, also called anti-LSR antibody 9-7) VH: AVTLDESGGGLQTPGGALSLVCKASGFTFSDYQMNWVRQAPSKGLEWVAGINGRSSWTDYGAAVKGRATISRDNGQSTVRLQLNNLRAEDTATYYCARGSSIDAWGHGTEVIVST VL: ALTQPASVSANPGETVKITCSGGGSYYGSYYYGWYQQKSPGSAPVTMIYNNNNRPSNIPSRFSGSLSGSTNTLTITGVQADEAVYYCGSIDSNIAGVFGAGTTLTV", "Kd": 2.52}
{"binder": "anti-LSR mouse/chicken chimeric monoclonal antibody #1-25 (antibody, V domains shown, also called No. 1-25; anti-LSR antibody 1-25) VH: AVTLDESGGGLQTPGGALSLVCKASGFDFSSYEMQWVRQAPGKGLEWVTGISGSGSSTRYGSAVKGRATISRDNGQSTVRLQLNNLRAEDTGTYYCARGSTIDAWGHGTEVTVST VL: ALTQPASVSANPGETVKITCSGGSSYAGSYYYGWYQQKSPGSAPVTVIYYNDQRPSDIPSRFSGSTSGSTATLTITGVQVEDEAVYICGTYEDSGGVFGAGTTLTV", "Kd": 2.03}
{"binder": "anti-LSR mouse/chicken chimeric monoclonal antibody #1-43 (antibody, V domains shown, also called No. 1-43; anti-LSR antibody 1-43) VH: AVTLDESGGGLQTPGGALSLVCEASGFDFSSHEMQWVRQAPGKGLEWVAGISGAGSSTRYGSAVQGRATISRDNGQSTVRLQLNNLRAEDTGTYYCARGSLIDAWGHGTEVIVST VL: ALTQPASVSANPGETVKITCSGGGSYYGSYYYSWHQQKSPGSAPVTVIYENNQRPSDIPSRFSGSKSGSTATLTITGVQAEDEAVYFCGSYDSSAGLFGAGTTLTV", "Kd": 24.6}
{"binder": "anti-LSR mouse/chicken chimeric monoclonal antibody #27-6 (antibody, V domains shown, also called No. 27-6; anti-LSR antibody 27-6) VH: AVTLDESGGGLQMPGGALSLVCRASGFDFSSYEMQWIRQAPGKGLEWVAGISGAGSGTRYGSAVKGRATISRDNGQSTVRLQLNNLRAEDTGIYFCARSSNIDAWGHGTEVTVST VL: ALTQPASVSANLGGTVKITCSGGGRYAESYYYGWYQQKSPGSTPVTVIYWNDKRPSNIPSRFSGSLSGSTNTLTITGVQVEDEAVYFCGSYEDSRSAFGAGTTLTV", "Kd": 4.29}
{"binder": "anti-LSR mouse/chicken chimeric monoclonal antibody #26-2 (antibody, V domains shown, also called No. 26-2; anti-LSR antibody 26-2) VH: AVTLDESGGGLQTPGGGLSLVCKGSGFTFSNYEMQWVRQAPGKGLEWVAGISGAGSTTRYGSAVQGRATISRDNGQSTVRLQLNNLRAEDTGTYYCARGSNIDGWGHGTEVIVST VL: ALTQPSSVSANPGETVKITCSGGGRYAESYYYSWFQQKSPGSAPVTVIYWNDKRPSNIPSRFSGSLSGSTNTLTITGVRAEDEAVYYCGAYEDSSAGFGAGTTLTV", "Kd": 4.04}
{"molecular_target": "T2, human LSR with a V5/His tag fused to the C-terminal, on the LSR-expressing cell strain (human, UniProt Q86X29 1-649)", "T2 construct": "In panning Lot 1 a mammalian LSR-expressing cell strain was used whose construct is not described; also called human LSR-expressing chicken cell strain; not shown: V5/His tag of vector pcDNA3.1-V5/His-TOPO", "T2 sequence": "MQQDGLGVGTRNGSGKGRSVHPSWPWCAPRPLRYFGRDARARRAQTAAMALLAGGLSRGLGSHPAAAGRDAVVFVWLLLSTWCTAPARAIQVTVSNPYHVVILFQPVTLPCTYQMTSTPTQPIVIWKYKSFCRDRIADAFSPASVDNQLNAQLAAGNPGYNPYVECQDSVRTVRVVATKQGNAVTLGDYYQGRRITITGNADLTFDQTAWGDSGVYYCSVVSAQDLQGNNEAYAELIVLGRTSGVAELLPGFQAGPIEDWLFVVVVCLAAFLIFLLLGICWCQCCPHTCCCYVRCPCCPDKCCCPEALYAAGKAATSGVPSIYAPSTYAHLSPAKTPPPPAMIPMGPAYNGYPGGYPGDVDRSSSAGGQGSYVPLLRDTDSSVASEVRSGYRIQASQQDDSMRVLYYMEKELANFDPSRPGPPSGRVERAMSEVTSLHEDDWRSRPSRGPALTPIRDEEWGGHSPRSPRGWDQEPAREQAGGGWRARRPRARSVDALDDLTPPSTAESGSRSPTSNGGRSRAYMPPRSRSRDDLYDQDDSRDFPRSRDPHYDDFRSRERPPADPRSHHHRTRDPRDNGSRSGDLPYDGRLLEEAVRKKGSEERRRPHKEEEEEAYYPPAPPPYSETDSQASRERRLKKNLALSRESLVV", "assay": "cell panning of the scFv phage library on the LSR-expressing cell strain, reactivity confirmed by FACS, positive phage clones selected", "method": "The scFv phage antibody library was added to a non-LSR-expressing cell strain to carry out absorption operation of nonspecific phages, and then was reacted with a LSR-expressing cell strain. In Lot 1, a mammalian cell strain was used and in Lot 2, cell panning was carried out using the chicken lymphoblast-like cell strain used for immunization. After washing with organic solvent, phages specifically binding to the LSR-expressing cell strain were recovered and then *Escherichia coli* were infected with it. Panning was carried out four times and then the reactivity of the library was confirmed by FACS analysis using the LSR-expressing cell strain. Phages from a library of which the reactivity had most increased were cloned, positive clones were selected, and then the sequences of six types of clones were determined (SEQ ID NOs: 1 to 6 and FIG. 9). For cell panning, a method described in \"Giordano et al., Nat Med. 2001 November; 7(11): 1249-53\" was followed."}
{"binder": "SEQ ID NO 4 (scFv phage antibody clone, anti-LSR antibody 27-6 sequence) (scFv, the phage coat protein fusion is not described; also called 27-6 scFv) scFv: AVTLDESGGGLQMPGGALSLVCRASGFDFSSYEMQWIRQAPGKGLEWVAGISGAGSGTRYGSAVKGRATISRDNGQSTVRLQLNNLRAEDTGIYFCARSSNIDAWGHGTEVTVSTGGGGSGGGGSGGGGSDVALTQPASVSANLGGTVKITCSGGGRYAESYYYGWYQQKSPGSTPVTVIYWNDKRPSNIPSRFSGSLSGSTNTLTITGVQVEDEAVYFCGSYEDSRSAFGAGTTLTV", "binding result": "binds"}
{"binder": "SEQ ID NO 5 (scFv phage antibody clone, anti-LSR antibody 1-25 sequence) (scFv, the phage coat protein fusion is not described; also called 1-25 scFv) scFv: AVTLDESGGGLQTPGGALSLVCKASGFDFSSYEMQWVRQAPGKGLEWVTGISGSGSSTRYGSAVKGRATISRDNGQSTVRLQLNNLRAEDTGTYYCARGSTIDAWGHGTEVTVSTGGGGSGGGGSGGGGSDVALTQPASVSANPGETVKITCSGGSSYAGSYYYGWYQQKSPGSAPVTVIYYNDQRPSDIPSRFSGSTSGSTATLTITGVQVEDEAVYICGTYEDSGGVFGAGTTLTV", "binding result": "binds"}
{"binder": "SEQ ID NO 6 (scFv phage antibody clone, anti-LSR antibody 1-43 sequence) (scFv, the phage coat protein fusion is not described; also called 1-43 scFv) scFv: AVTLDESGGGLQTPGGALSLVCEASGFDFSSHEMQWVRQAPGKGLEWVAGISGAGSSTRYGSAVQGRATISRDNGQSTVRLQLNNLRAEDTGTYYCARGSLIDAWGHGTEVIVSTGGGGSGGGGSGGGGSDVALTQPASVSANPGETVKITCSGGGSYYGSYYYSWHQQKSPGSAPVTVIYENNQRPSDIPSRFSGSKSGSTATLTITGVQAEDEAVYFCGSYDSSAGLFGAGTTLTV", "binding result": "binds"}
{"binder": "SEQ ID NO 3 (scFv phage antibody clone, anti-LSR antibody 26-2 sequence) (scFv, the phage coat protein fusion is not described; also called 26-2 scFv) scFv: AVTLDESGGGLQTPGGGLSLVCKGSGFTFSNYEMQWVRQAPGKGLEWVAGISGAGSTTRYGSAVQGRATISRDNGQSTVRLQLNNLRAEDTGTYYCARGSNIDGWGHGTEVIVSTGGGGSGGGGSGGGGSDVALTQPSSVSANPGETVKITCSGGGRYAESYYYSWFQQKSPGSAPVTVIYWNDKRPSNIPSRFSGSLSGSTNTLTITGVRAEDEAVYYCGAYEDSSAGFGAGTTLTV", "binding result": "binds"}
